Numbering of substitutions follows the chain as printed. Blank lines part the entries; values can stand above or below the molecule they belong to.
Assays:
[1] = molecular target: T1, human CDH6 (full-length and EC domain deletion mutants) (Homo sapiens, UniProt P55285, DEL487-608); assay: Epitope analysis of rat anti-CDH6 antibody by flow cytometry using domain deletion mutants; type: binding; conditions: flow cytometry; transfected 293α cells; antibody 20 nM
T1 construct: each one of the five EC domains could be deleted from full-length human CDH6; 3xFLAG (deletion mutants only, from the vector p3×FLAG-CMV-9); expressed in transfected cells; host or cells: 293α cells
T1 sequence (P55285 with tags, fused parts or gaps DEL487-608): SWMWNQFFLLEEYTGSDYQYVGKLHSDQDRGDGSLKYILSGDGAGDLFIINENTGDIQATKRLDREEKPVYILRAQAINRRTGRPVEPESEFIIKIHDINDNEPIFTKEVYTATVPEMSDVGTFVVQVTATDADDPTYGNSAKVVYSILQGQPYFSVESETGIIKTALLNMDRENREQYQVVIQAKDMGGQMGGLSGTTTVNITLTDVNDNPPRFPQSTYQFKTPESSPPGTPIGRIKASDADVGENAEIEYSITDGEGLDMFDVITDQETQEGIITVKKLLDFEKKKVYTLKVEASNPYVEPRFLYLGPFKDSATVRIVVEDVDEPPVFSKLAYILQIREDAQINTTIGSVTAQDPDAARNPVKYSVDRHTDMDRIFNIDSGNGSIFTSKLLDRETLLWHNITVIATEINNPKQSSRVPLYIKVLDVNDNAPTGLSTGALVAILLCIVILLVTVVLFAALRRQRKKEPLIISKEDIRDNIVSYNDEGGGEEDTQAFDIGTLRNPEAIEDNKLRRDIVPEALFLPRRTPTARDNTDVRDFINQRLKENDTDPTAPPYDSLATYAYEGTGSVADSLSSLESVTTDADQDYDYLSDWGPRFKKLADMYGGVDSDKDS
From the text: (§1) The full-length extracellular region of human CDH6 has five extracellular domains, EC1 (SEQ ID NO: 2), EC2 (SEQ ID NO: 3), EC3 (SEQ ID NO: 4), EC4 (SEQ ID NO: 5), and EC5 (SEQ ID NO: 6). A gene to be expressed such that each one of the five EC domains could be deleted from full-length human CDH6 was synthesized by GeneArt, and incorporated into p3×FLAG-CMV-9 vectors for mammalian expression (Sigma-Aldrich Co. LLC) according to a method known to a person skilled in the art in order to produce an expression vector for each domain deletion mutant lacking any one of EC1 to EC5.
(§2) The epitopes to which the rat anti-human CDH6 antibodies bound were identified by flow cytometry analysis using a 293α cell line transfected with each EC domain deletion vector. Using Lipofectamine 2000 (Thermo Fisher Scientific Inc.), each domain deletion mutant expression vector produced in Reference Example 2)-2-1, or pcDNA3.1-hCDH6 for the expression of full-length human CDH6 was transiently introduced into a 293α cell line, which was a cell line derived from HEK293 cells by stable transfection with integrin αv and integrin […] expression vectors. The cells were cultured overnight under conditions of 37° C. and 5% CO2, and thereafter, a cell suspension was prepared. The suspension of the transfected 293α cells was centrifuged, and a supernatant was then removed. Thereafter, the cells were suspended by the addition of each of the 4 rat anti-CDH6 monoclonal antibodies (clone Nos: rG019, rG055, rG056 and rG061), which had been prepared in Reference Example 1)-7, or rat IgG control (R&D Systems, Inc.) (final concentration: 20 nM). The cells were left standing at 4° C. for 1 hour. The cells were washed twice with PBS supplemented with 5% FBS, and then suspended by the addition of Anti-Rat IgG (whole molecule)-FITC antibody produced in rabbit (Sigma-Aldrich Co. LLC) that had been 50-fold diluted with PBS supplemented with 5% FBS. The cells were left standing at 4° C. for 1 hour. The cells were washed twice with PBS supplemented with 5% FBS, followed by detection using a flow cytometer (Canto II; BD Biosciences). The data was analyzed using FlowJo (Tree Star, Inc.). In the histograms of FIGS. 2-1 to 2-6, the abscissa depicts FITC fluorescence intensity indicating the amount of the antibody bound, and the ordinate depicts cell count. […] Fluorescence intensity is enhanced when the antibody binds to full-length hCDH6 or each EC domain deletion mutant on the surface of cells. The rat IgG control binds to none of the transfected cells.

[2] = molecular target: T2, human CDH6 (full-length and EC domain deletion mutants) (Homo sapiens, UniProt P55285); assay: as above; type: binding; conditions: flow cytometry; transfected 293α cells; antibody 20 nM
T2 construct: each one of the five EC domains could be deleted from full-length human CDH6; 3xFLAG (deletion mutants only, from the vector p3×FLAG-CMV-9); expressed in transfected cells; host or cells: 293α cells
T2 sequence (P55285 160-790): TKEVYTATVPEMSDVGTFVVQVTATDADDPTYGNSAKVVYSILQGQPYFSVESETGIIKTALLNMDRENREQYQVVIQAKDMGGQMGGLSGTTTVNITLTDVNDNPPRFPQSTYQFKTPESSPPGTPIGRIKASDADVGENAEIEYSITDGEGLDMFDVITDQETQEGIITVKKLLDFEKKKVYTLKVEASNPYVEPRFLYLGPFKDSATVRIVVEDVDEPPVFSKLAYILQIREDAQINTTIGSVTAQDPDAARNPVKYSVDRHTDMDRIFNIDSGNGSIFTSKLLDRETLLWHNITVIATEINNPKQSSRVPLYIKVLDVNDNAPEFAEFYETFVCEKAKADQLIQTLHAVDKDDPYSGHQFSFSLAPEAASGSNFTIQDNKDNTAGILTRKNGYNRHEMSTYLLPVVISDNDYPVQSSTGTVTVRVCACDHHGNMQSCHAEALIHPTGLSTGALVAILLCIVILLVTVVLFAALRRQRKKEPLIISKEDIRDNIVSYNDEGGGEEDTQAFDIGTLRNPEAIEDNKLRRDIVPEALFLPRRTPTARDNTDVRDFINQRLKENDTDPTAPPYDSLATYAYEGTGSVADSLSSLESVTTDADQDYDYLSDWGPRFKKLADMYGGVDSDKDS
From the text: as §1, §2

binding to EC5 deletion mutant [1]: bind | binding to EC1 deletion mutant [2]: bind
B1: rG055: rat anti-human CDH6 monoclonal antibody produced by hybridoma rG055; variable regions SEQ ID NO: 20 and 25 (antibody, listed as Rattus norvegicus, V domains shown)
VL: DVQMTHSPSYLAASPGESVSISCKTSKNISNYLVWYQQKPGEAYKLLIYSGSTLQSGTPSRFSGSGSGTDFTLTIRSLEPEDFGLYFCQQYYEKPFTFGSGTKLEIKRA
VH: EVQLQESGPGLVRPSQSLSLSCSVTDYSITSNYWGWIRRFPGNKMEWMGYITYSGYTSYNPSLQSRISITRDTSKNQFFLQLNSVTAEDTATYYCARSINHGGYSYVVDAWGPGASVTVSS

binding to EC5 deletion mutant [1]: bind | binding to EC1 deletion mutant [2]: bind
B2: rG061: rat anti-human CDH6 monoclonal antibody produced by hybridoma rG061; variable regions SEQ ID NO: 40 and 45 (antibody, listed as Rattus norvegicus, V domains shown)
VL: B1 VL with H6Q, T25A, S26T, N28S, V34A, L46V, F87S, F96L
VH: EVQLQESGPGLVKPSQSLSLTCSVTGYSITTYYWGWIRKFPGNKMEWMGYISYSGRTSYNPSLKSRMSITRDASKNQFFLQLNSVTTDDTATYYCARSPINHGGYWYFDFWGPGTMVTVSS

binding to EC5 deletion mutant [1]: bind | binding to EC1 deletion mutant [2]: bind
B3: rG056: rat anti-human CDH6 monoclonal antibody produced by hybridoma rG056; variable regions SEQ ID NO: 30 and 35 (antibody, listed as Rattus norvegicus, V domains shown)
VL: DVQMTQSPSSLAASPGESVSISCRATKSIGIYLAWYQQKPGKTFKLLIYSGSTLQSGTPSRFSGSGSGTDFTLTIRSLEPEDFGLYFCQQFYENPFTFGSGTKLEIRRA
VH: EVQLQESGPGLVKPSQSLSLTCSVTDYSITTYFWGWIRKFPGNKMEWMGYMSYRGGTSYNPSLKSRISITRDTSKNQFFLQLNSVTTEDTATYYCARCPNYGGHSLVFDYWGQGVMVTVSS

binding to EC5 deletion mutant [1]: bind | binding to EC1 deletion mutant [2]: bind
B4: rG019: rat anti-human CDH6 monoclonal antibody produced by hybridoma rG019; variable regions SEQ ID NO: 10 and 15 (antibody, listed as Rattus norvegicus, V domains shown)
VL: DIQMTQSPSLLSASVGDRVTLNCKASQNIYKNLAWYQQKLGEGPKLLIYDANTLQTGIPSRFSGSGSGSDFTLTISSLQPEDVATYFCQQYYSGWAFGGVTNLELKRA
VH: QVQLQQSGAELVKPGSSVKISCKASGYTFTRNFMHWIKQQPGNGLEWIGWIYCGDGETEYNQKFNGKATLTADRSSSTAYMELSRLTSEDSAVYFCARGVYGGFAGGYFDFWGQGVMVTVSS
